Test results from PMC8563704, “Gain-of-Function Properties of a Dynamin 2 Mutant Implicated in Charcot-Marie-Tooth Disease” (Frontiers in Cellular Neuroscience, 2021).
Substitutions are numbered along the chain they refer to. Names may count otherwise.

B1: DNM2^ΔDEE-EGFP (enzyme, rat, UniProt P39052-1 1-870, looked up)
chain: MGNRGMEELIPLVNKLQDAFSSIGQSCHLDLPQIAVVGGQSAGKSSVLENFVGRDFLPRGSGIVTRRPLILQLIFSKTEYAEFLHCKSKKFTDFDEVRQEIEAETDRVTGTNKGISPVPINLRVYSPHVLNLTLIDLPGITKVPVGDQPPDIEYQIKDMILQFISRESSLILAVTPANMDLANSDALKLAKEVDPQGLRTIGVITKLDLMDEGTDARDVLENKLLPLRRGYIGVVNRSQKDIEGRKDIRAALAAERKFFLSHPAYRHMADRMGTPHLQKTLNQQLTNHIRESLPTLRSKLQSQLLSLEKEVEEYKNFRPDDPTRKTKALLQMVQQFGVDFEKRIEGSGDQVDTLELSGGARINRIFHERFPFELVKMEFDEKDLRREISYAIKNIHGVRTGLFTPDLAFEAIVKKQVVKLKEPCLKCVDLVIQELISTVRQCTSKLSSYPRLREETERIVTTYIREREGRTKDQILLLIDIEQSYINTNHEDFIGFANAQQRSTQLNKKRAIPNQGEILVIRRGWLTINNISLMKGGSKEYWFVLTAESLSWYKEKEKKYMLPLDNLKIRDVEKGFMSNKHVFAIFNTEQRNVYKDLRQIELACDSQEDVDSWKASFLRAGVYPEKDQAENEDGAQENTFSMDPQLERQVETIRNLVDSYVAIINKSIRDLMPKTIMHLMINNTKAFIHHELLAYLYSSADQSSLMEESAEQAQRRDDMLRMYHALKEALNIIGDISTSTVSTPVPPPVDDTWLQNTSSHSPTPQRRPVSSVHPPGRPPAVRGPTPGPPLIPMPVGATSSFSAPPIPSRPGPQNVFANNDPFSAPPQIPSRPARIPPGIPPGVPSRRAPAAPSRPTIIRPAEPSLLD
notes: dynamin 2, rat, isoform 1 (ba, IIBA), UniProtKB P39052-1, with the CMT-linked deletion of residues 555DEE557; Deletion introduced into the EGFP-tagged DNM2^WT template; also called EGFP-tagged DNM2^Δ ^DEE; source: expressed in U2OS cells (brightness analysis); NIH-3T3 cells (FLIM-FRET); not shown: EGFP, C-terminal, kept
B2: DNM2^WT-EGFP (enzyme, rat, UniProt P39052-1 1-870, looked up)
chain: MGNRGMEELIPLVNKLQDAFSSIGQSCHLDLPQIAVVGGQSAGKSSVLENFVGRDFLPRGSGIVTRRPLILQLIFSKTEYAEFLHCKSKKFTDFDEVRQEIEAETDRVTGTNKGISPVPINLRVYSPHVLNLTLIDLPGITKVPVGDQPPDIEYQIKDMILQFISRESSLILAVTPANMDLANSDALKLAKEVDPQGLRTIGVITKLDLMDEGTDARDVLENKLLPLRRGYIGVVNRSQKDIEGRKDIRAALAAERKFFLSHPAYRHMADRMGTPHLQKTLNQQLTNHIRESLPTLRSKLQSQLLSLEKEVEEYKNFRPDDPTRKTKALLQMVQQFGVDFEKRIEGSGDQVDTLELSGGARINRIFHERFPFELVKMEFDEKDLRREISYAIKNIHGVRTGLFTPDLAFEAIVKKQVVKLKEPCLKCVDLVIQELISTVRQCTSKLSSYPRLREETERIVTTYIREREGRTKDQILLLIDIEQSYINTNHEDFIGFANAQQRSTQLNKKRAIPNQGEILVIRRGWLTINNISLMKGGSKEYWFVLTAESLSWYKDEEEKEKKYMLPLDNLKIRDVEKGFMSNKHVFAIFNTEQRNVYKDLRQIELACDSQEDVDSWKASFLRAGVYPEKDQAENEDGAQENTFSMDPQLERQVETIRNLVDSYVAIINKSIRDLMPKTIMHLMINNTKAFIHHELLAYLYSSADQSSLMEESAEQAQRRDDMLRMYHALKEALNIIGDISTSTVSTPVPPPVDDTWLQNTSSHSPTPQRRPVSSVHPPGRPPAVRGPTPGPPLIPMPVGATSSFSAPPIPSRPGPQNVFANNDPFSAPPQIPSRPARIPPGIPPGVPSRRAPAAPSRPTIIRPAEPSLLD
notes: dynamin 2, rat, isoform 1 (ba, IIBA), UniProtKB P39052-1; The template cDNAs carried C-terminal His6 tags; also called EGFP-tagged DNM2^WT; source: expressed in U2OS cells (brightness analysis); NIH-3T3 cells (FLIM-FRET); not shown: EGFP, C-terminal, kept
B3: DNM2^A618T-EGFP (enzyme, rat, UniProt P39052-1 1-870, looked up)
chain: B2 chain with A618T
notes: dynamin 2, rat, isoform 1 (ba, IIBA), UniProtKB P39052-1, with the CNM-linked mutation A618T; The template cDNAs carried C-terminal His6 tags; also called EGFP-tagged DNM2^A618T; source: expressed in U2OS cells; not shown: EGFP, C-terminal, kept
B4: DNM2^K562E-EGFP (enzyme, rat, UniProt P39052-1 1-870, looked up)
chain: B2 chain with K562E
notes: dynamin 2, rat, isoform 1 (ba, IIBA), UniProtKB P39052-1, with the CMT-linked mutation K562E; The template cDNAs carried C-terminal His6 tags; also called EGFP-tagged DNM2^K562E; source: expressed in U2OS cells; not shown: EGFP, C-terminal, kept

Molecular target: the molecule itself
Test: fluorescence fluctuation spectroscopy (brightness analysis); EGFP-tagged dynamins in the cytosol of living U2OS cells, as a function of concentration; two-photon excitation at 1,000 nm; brightness normalised to monomeric EGFP

Protein | stoichiometry N
B1 | ~4
B2 | ~4
B3 | 20 to 24
B4 | ~4
